Test [1] has as its target T1, BMP10 (human, UniProt O95393 317-424).
T1 construct: also called hBMP-10; hBMP10
T1 sequence: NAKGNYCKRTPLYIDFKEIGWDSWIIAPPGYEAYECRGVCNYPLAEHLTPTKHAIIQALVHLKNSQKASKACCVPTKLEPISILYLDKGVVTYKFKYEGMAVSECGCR
The experiment in a line: SPR (Biacore), ligand amine-coupled to CM5 chip, Fc fusion injected.

The target in test [2] is T2, BMP9 (human, UniProt Q9UK05 320-429).
T2 construct: also called hBMP-9; hBMP9
T2 sequence (looked up): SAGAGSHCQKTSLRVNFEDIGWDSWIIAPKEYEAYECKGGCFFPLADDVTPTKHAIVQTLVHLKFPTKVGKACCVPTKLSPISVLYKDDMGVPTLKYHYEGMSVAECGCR
The test is described as above.

Another test concerns the target T3, BMP6 (human, UniProt P22004 382-513, limits assumed).
T3 sequence (looked up): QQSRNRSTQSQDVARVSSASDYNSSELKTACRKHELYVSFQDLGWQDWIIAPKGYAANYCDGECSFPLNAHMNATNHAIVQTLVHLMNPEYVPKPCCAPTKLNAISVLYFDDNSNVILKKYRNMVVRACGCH
Described as above.

Test [3] concerns the target T4, BMP5 (human, UniProt P22003 317-454, limits assumed).
T4 sequence (looked up): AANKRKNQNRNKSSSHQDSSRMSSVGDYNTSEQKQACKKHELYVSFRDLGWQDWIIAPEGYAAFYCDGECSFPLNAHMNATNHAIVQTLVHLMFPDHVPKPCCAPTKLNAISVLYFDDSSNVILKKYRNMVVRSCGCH
Described as above.

Test [4] has as its target T1, BMP10. Nature of the test: SPR (Biacore), ligand amine-coupled to chip, Fc fusion injected. Background: In SPR one partner is held on a chip, and binding of the other changes the refractive index at the surface.
Test [5] has as its target T4, BMP5. The description is as above.
For test [6], the target named is T2, BMP9. The experiment in a line: SPR (Biacore), ligand amine-coupled to chip, Fc fusion injected; the hFc form had only transient affinity for BMP9. From the text:
Ligands were immobilized on a Biacore™ CMS chip using standard amine-coupling procedure.

B1: ALK1-mFc (Fc fusion, mouse, UniProt Q61288 23-119, looked up)
chain: DLAKPSKLVNCTCESPHCKRPFCQGSWCTVVLVREQGRHPQVYRGCGSLNQELCLGRPTEFLNHHCCYRSFCNHNVSLMLEATQTPSEEPEVDAHLP
notes: extracellular domain; Mouse ALK1 fused to a murine Fc domain with a linker; also called mALK1-mFc; not shown: linker and murine Fc domain
For B1, the binding result with BMP10 [1] is “binds”; in the test with BMP9 [2] it was “binds”; with BMP6, “no binding”; with BMP5 [3] it was “no binding”.

B2: ActRIIB(L79D 25-131)-mFc (Fc fusion)
chain: ETRECIYYNANWELERTNQSGLERCEGEQDKRLHCYASWRNSSGTIELVKKGCWDDDFNCYDRQECVATEENPQVYFCCCEGNFCNERFTHLPEAGGPEVTYEPPPT
notes: not shown: linker and mouse Fc domain
As to B2, the binding result with BMP10 [4] is given as “binds”; in the test with BMP5 [5] it was “no binding”; in the test with BMP9 [6] it was “binds”.

The values above are taken from patent publication US20200087367A1 (ACCELERON PHARMA, published 2020).
